In this experiment the target is T1, V600E mutant BRAF^15mut (BRAF kinase domain with 15 solubilizing mutations and V600E) (UniProt P15056 444-723, I543A | I544S | I551K | Q562R | L588N | K630S | Y673S | A688R | L706S | Q709R | …).
T1 construct: BRAF kinase domain, residues 444-723 of UniProt P15056, with 15 solubilizing mutations (Phe667 kept intact) and V600E; Cloned into pET-32a (NdeI, XhoI) with N-terminal MBP; also called VRAF murine sarcoma viral oncogene homologue B1 kinase domain; source: E. coli BL21(DE3), purified (MBPTrap HP column)
T1 sequence (P15056 other isoform, or with tags, fused parts or gaps with the stated changes): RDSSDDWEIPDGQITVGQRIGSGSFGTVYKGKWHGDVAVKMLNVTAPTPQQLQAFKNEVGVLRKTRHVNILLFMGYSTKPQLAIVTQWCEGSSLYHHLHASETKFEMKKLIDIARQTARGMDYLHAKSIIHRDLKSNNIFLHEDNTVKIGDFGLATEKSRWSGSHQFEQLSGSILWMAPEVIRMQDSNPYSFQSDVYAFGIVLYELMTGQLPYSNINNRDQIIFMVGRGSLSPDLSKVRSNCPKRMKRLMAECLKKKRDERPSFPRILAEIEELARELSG
The experiment is described as follows: ELISA; 10 ug/mL V600E mutant BRAF^15mut coated in a 96-well plate; blocked with 5% skim milk in 20 mM Tris-HCl pH 7.5, 150 mM NaCl; purified Myc-tagged proteins (MEK1, MBP, miniproteins) added at 0, 200 and 2000 nM; detected with anti-c-Myc antibody and HRP-conjugated anti-mouse IgG, TMB, absorbance at 450 nm; triplicate. The note with it: both partners purified. (In general: ELISA stands for enzyme-linked immunosorbent assay.)

B1: miniprotein 94 (designed binder)
chain: PCVWTGFREFKGGQRGKERLAMCEDLMCEADWWGGNQNRDRGSIFTRVKGSGALGKISIAERGARNNAV
notes: de novo designed miniprotein of three helices and 69 amino acids; scaffold from residues 164-232 of 14-3-3, all 69 residues allowed to mutate; Cloned into pMAL-c5x with C-terminal Myc tag; source: E. coli BL21(DE3), purified (MBPTrap HP column); not shown: MBP, N-terminal, kept; Myc, C-terminal, kept
B1: the binding result was “binds”.

B2: miniprotein 63 (designed binder)
chain: SIVGQGAQQMLVSKIKCTVANEWLDRSMLTSKFAMFVLLNEIDMLDIMLEAMGISLLEDREHQTRRVNY
notes: de novo designed miniprotein of three helices and 69 amino acids; scaffold from residues 164-232 of 14-3-3, all 69 residues allowed to mutate; Cloned into pMAL-c5x (NdeI, EcoRI) with C-terminal Myc tag; source: E. coli BL21(DE3), purified (MBPTrap HP column); not shown: MBP, N-terminal, kept; Myc, C-terminal, kept
B2: the binding result was “binds”.

B3: miniprotein 76 (designed binder)
chain: SIQGQGARQCLVSKLKCTVANEWLDRWMLTSKFAMFVLLNEIDMLDIMLEAMGISIEEDREHQTRRVNY
notes: as for B2
For the molecule B3, the binding result is reported as “binds”.
